Measurements from US20250326839A1 (VIGIL NEUROSCIENCE, published 2025).
Residue numbers refer to the chain shown, from its start.

T1: human TREM2 (human, UniProt Q9NZC2 19-174, limits assumed)
T1 construct: also called triggering receptor expressed on myeloid cells 2
T1 sequence: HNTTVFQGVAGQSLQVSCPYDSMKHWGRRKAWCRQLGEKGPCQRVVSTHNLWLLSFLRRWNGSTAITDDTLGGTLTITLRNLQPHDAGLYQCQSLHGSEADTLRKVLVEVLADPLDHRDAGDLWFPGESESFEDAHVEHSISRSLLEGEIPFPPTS

B1: V85 (antibody, V domains shown)
VH: EVQLVQSGAEVKKPGESLKISCKGSGYSFRSYWIAWVRQMPGKGLEWMGTIYPGDSDTRYSPSFQGQVTISADKSISTAYLQWSSLKASDTAMYFCARSRTFYYDSSDYFDYWGQGTLVTVSS
VL: DIQMTQSPSSVSASVGDRVTITCRASQGISSWLAWYQQKPGKAPKLLIYAASSRQNGVPSRFSGSGSGTDFTLTISSLQPEDFATYFCQQADSFPRTFGQGTKLEIK
notes: also called 6E7 variant V85
B2: V88 (antibody, V domains shown)
VH: B1 VH with R30G, T50I, S99Q
VL: B1 VL with S53R, R54L, N56R, F94S
notes: also called 6E7 variant V88
B3: V86 (antibody, V domains shown)
VH: B1 VH with R30G, I34L, T50I, Q65E
VL: B1 VL
notes: also called 6E7 variant V86
B4: V89 (antibody, V domains shown)
VH: B1 VH with R30T, T50I, S99Q
VL: B1 VL with R54L, F94H
notes: also called 6E7 variant V89
B5: V87 (antibody, V domains shown)
VH: B1 VH with T50I, T58V, S63D
VL: B1 VL with R54L, N56W
notes: also called 6E7 variant V87

What follows are binders tested against T1, human TREM2 (assay: 2nd screen, 2 nM).

Row | Binding Signal | Binder
1 | 5.41 fold over 6E7 parental antibody | B1
2 | 5.57 fold over 6E7 parental antibody | B2
3 | 5.17 fold over 6E7 parental antibody | B3
4 | 0.94 fold over 6E7 parental antibody | B4
5 | 4.86 fold over 6E7 parental antibody | B5

These binders were tested against T1, human TREM2 (assay: 1st screen, 10 nM Ab).

Row | Binding Signal | Binder
6 | 5.41 fold over 6E7 parental antibody | B1
7 | 4.92 fold over 6E7 parental antibody | B2
8 | 4.8 fold over 6E7 parental antibody | B3
9 | 1.33 fold over 6E7 parental antibody | B4
10 | 3.84 fold over 6E7 parental antibody | B5

What follows are binders tested against T1, human TREM2 (assay: 2nd screen, 10 nM).

Row | Binding Signal | Binder
11 | 5.37 fold over 6E7 parental antibody | B1
12 | 5.3 fold over 6E7 parental antibody | B2
13 | 5.02 fold over 6E7 parental antibody | B3
14 | 1.46 fold over 6E7 parental antibody | B4
15 | 3.93 fold over 6E7 parental antibody | B5
